The record followed here is paper PMC3199388.

Experiment in all cases: ITC
In general terms: ITC needs no label: the signal is the heat of the interaction.

Data set [1] addresses T1, Dcr1 C-terminal extended dsRBD (Schizosaccharomyces pombe, UniProt Q09884 1258-1358).
T1 sequence: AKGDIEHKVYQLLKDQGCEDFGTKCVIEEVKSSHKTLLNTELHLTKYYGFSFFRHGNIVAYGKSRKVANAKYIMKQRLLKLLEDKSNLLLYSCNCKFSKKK

Data set [2] concerns the target T2, Dcr1 dsRBD K1265A (helix 1) (Schizosaccharomyces pombe, UniProt Q09884 1258-1358, K1265A).
T2 sequence: T1 sequence with K8A

The target in data set [3] is T3, Dcr1 dsRBD R1322A (loop 4) (Schizosaccharomyces pombe, UniProt Q09884 1258-1358, R1322A).
T3 sequence: T1 sequence with R65A

For data set [4], the target named is T1, Dcr1 C-terminal extended dsRBD. The source holds these as a separate data set.

Positions count from the first letter of the chain named. Like-named read-outs stand apart in the source and are kept apart here.

B1: dsDNA 24 bp (DNAfwd/DNArev) (dsDNA)
DNA 1: GGGATCAATATGCTAAGCGATCCC
DNA 2: GGGATCGCTTAGCATATTGATCCC
For B1, the dissociation constant Kd in data set [1] is 1500 nM. For the same molecule, the binding result in data set [2] and in data set [3] was “no binding” throughout.

B2: dsRNA 24 bp (RNAfwd/RNArev) (dsRNA)
RNA 1: GGGAUCAAUAUGCUAAGCGAUCCC
RNA 2: GGGAUCGCUUAGCAUAUUGAUCCC
With B2, the Kd in data set [4] turned out to be 800 nM. Moreover, the binding result in data set [2] and in data set [3] was “no binding” each time.

As a reminder, the Kd is a measure of binding affinity in units of concentration. A high value points to lower affinity.
